Measured values: US20180305699A1 (UNIVERSITY OF CHICAGO, published 2018)

Legend:
[1] = target: T1, methionyl-tRNA synthetase (Mes1) (S. cerevisiae, UniProt P00958 2-751, limits assumed); test: co-elution on Superdex200 gel filtration, western blot of fractions (AME complex of Arc1, Mes1 and Gus1)
T1 construct: Component of the purified AME complex; also called YGR264C
T1 sequence: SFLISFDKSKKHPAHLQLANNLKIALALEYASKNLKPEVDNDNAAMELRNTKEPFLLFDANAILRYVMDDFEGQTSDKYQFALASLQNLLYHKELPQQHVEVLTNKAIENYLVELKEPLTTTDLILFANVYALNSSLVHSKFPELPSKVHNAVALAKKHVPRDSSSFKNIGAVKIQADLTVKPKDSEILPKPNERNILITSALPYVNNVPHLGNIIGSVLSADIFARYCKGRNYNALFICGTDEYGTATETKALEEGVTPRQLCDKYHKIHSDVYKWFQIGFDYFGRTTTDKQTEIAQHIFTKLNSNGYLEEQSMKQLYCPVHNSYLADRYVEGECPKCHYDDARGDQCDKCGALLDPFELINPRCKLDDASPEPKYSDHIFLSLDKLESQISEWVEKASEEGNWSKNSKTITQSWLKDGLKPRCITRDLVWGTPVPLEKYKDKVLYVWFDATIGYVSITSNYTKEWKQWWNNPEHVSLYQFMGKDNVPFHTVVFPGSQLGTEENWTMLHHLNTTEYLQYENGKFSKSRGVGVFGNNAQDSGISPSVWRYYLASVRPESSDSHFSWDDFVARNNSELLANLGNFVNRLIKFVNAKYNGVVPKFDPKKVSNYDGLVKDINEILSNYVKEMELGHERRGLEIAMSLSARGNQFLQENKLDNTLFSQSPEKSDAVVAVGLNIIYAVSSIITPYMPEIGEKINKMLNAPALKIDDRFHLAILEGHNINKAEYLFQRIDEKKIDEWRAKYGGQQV
Excerpt: (§1) Shown on the left panel is the elution profile from Superdex200 gel filtration column.

[2] = target: T2, glutamyl-tRNA synthetase (Gus1) (S. cerevisiae, UniProt P46655 1-708); test: as above
T2 construct: Component of the purified AME complex; also called YGL245W
T2 sequence: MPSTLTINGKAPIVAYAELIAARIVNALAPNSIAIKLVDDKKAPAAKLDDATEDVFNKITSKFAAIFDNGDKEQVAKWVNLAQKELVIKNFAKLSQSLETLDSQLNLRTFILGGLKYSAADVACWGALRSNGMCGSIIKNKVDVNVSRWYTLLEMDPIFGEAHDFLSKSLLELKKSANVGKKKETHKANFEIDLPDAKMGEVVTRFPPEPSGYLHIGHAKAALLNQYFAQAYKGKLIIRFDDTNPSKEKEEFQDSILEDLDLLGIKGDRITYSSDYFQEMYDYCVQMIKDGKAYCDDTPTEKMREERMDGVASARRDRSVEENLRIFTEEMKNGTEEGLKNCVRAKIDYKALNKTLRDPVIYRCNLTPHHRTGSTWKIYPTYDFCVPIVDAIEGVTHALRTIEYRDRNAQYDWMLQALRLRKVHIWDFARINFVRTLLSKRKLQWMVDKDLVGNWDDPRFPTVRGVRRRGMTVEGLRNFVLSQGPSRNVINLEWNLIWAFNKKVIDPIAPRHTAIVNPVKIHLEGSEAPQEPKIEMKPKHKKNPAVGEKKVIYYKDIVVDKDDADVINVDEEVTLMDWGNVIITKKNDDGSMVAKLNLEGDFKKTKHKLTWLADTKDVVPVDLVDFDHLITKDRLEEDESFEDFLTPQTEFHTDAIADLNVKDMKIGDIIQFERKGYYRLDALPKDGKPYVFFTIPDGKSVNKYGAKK
Excerpt: as §1

B1: aminoacylation cofactor (Arc1) (other)
chain: MSDLVTKFESLIISKYPVSFTKEQSAQAAQWESVLKSGQIQPHLDQLNLVLRDNTFIVSTLYPTSTDVHVFEVALPLIKDLVASSKDVKSTYTTYRHILRWIDYMQNLLEVSSTDKLEINHDLDLPHEVIEKKKKAPAGGAADAAAKADEDVSKKAKKQDHPRGKPDEETLKKLREEAKAKKAAKKAANAKQQQEQQNKAPEKPKPSAIDFRVGFIQKAIKHPDADSLYVSTIDVGDEEGPRTVCSGLVKHFPLDAMQERYVVVVCNLKPVNMRGIKSTAMVLCGSNDDKVEFVEPPKDSKAGDKVFFEGFGDEAPMKQLNPKKKIWEHLQPHFTTNDGLEVIFKDEEEKDHPVRKLTNAKGESFKVASIANAQVR
notes: Component of the purified AME complex; also called YGL105W
[1]
  binding result: binds
[2]
  binding result: binds
